Laboratory results published in patent US20250092108A1 (published 2025).
Residue numbers refer to the chain shown, from its start. Numbers in names are those of the source. Like-named read-outs stand apart in the source and are kept apart here.

T1: human CD25 (IL-2Rα) (human, UniProt P01589 22-213)
T1 chain: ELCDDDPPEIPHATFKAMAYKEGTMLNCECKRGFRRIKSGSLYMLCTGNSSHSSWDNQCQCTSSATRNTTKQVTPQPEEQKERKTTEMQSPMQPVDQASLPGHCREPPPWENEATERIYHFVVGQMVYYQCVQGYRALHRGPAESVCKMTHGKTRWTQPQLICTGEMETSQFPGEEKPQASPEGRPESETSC

B1: XENP14277 (prior art IL-2 variant, mutant 2-4 with Q126T as described in WO 2009/061853, without R38L) (ligand)
chain: APTSSSTKKTQLQLEHLLLDLQMILNGISNHKNPRLARMLTFKFYMPEKATELKHLQCLEEELKPLEEALRLAPSKNFHLRPRDLISDVNVIVLELKGSETTFMCEYADETATIVEFLNRWITFSTSIISTLTHHHHHHHH
B2: XENP14381 (prior art IL-2 variant, mutant 2-4 with Q126T, with R38L) (ligand)
chain: B1 chain with R38L
B3: 14192 R38E T41K C125S (protein)
chain: APTSSSTKKTQLQLEHLLLDLQMILNGINNYKNPKLTEMLKFKFYMPKKATELKHLQCLEEELKPLEEVLNLAQSKNFHLRPRDLISNINVIVLELKGSETTFMCEYADETATIVEFLNRWITFSQSIISTLT
B4: 14206 T41E F42Y C125S (protein)
chain: B3 chain with E38R, K41E, F42Y
B5: 14191 R38Q T41Q C125S (protein)
chain: B3 chain with E38Q, K41Q
B6: 14213 R38Q F42Y C125S (protein)
chain: B3 chain with E38Q, K41T, F42Y
B7: 14208 T41M F42Y C125S (protein)
chain: B3 chain with E38R, K41M, F42Y
B8: XENP14206 (T41E F42Y C125S) (protein)
chain: B3 chain with E38R, K41E, F42Y
B9: XENP14208 (T41M F42Y C125S) (protein)
chain: B3 chain with E38R, K41M, F42Y
B10: XENP14217 (R38P T41R C125S) (protein)
chain: B3 chain with E38P, K41R
B11: XENP14214 (R38N T41R C125S) (protein)
chain: B3 chain with E38N, K41R
B12: XENP14216 (R38V T41R C125S) (protein)
chain: B3 chain with E38V, K41R
B13: 14214 R38N T41R C125S (protein)
chain: B3 chain with E38N, K41R
B14: XENP14209 (T41Q F42Y C125S) (protein)
chain: B3 chain with E38R, K41Q, F42Y
B15: 14215 R38N T41K C125S (protein)
chain: B3 chain with E38N
B16: 14217 R38P T41R C125S (protein)
chain: B3 chain with E38P, K41R
B17: 14216 R38V T41R C125S (protein)
chain: B3 chain with E38V, K41R
B18: 14202 R38Q T41S C125S (protein)
chain: B3 chain with E38Q, K41S
B19: 14190 R38Q T41K C125S (protein)
chain: B3 chain with E38Q
B20: XENP14213 (R38Q F42Y C125S) (protein)
chain: B3 chain with E38Q, K41T, F42Y
B21: XENP14207 (T41D F42Y C125S) (protein)
chain: B3 chain with E38R, K41D, F42Y
B22: 14194 R38N T41Q C125S (protein)
chain: B3 chain with E38N, K41Q
B23: 14193 R38Q T41R C125S (protein)
chain: B3 chain with E38Q, K41R
B24: 14207 T41D F42Y C125S (protein)
chain: B3 chain with E38R, K41D, F42Y
B25: 14209 T41Q F42Y C125S (protein)
chain: B3 chain with E38R, K41Q, F42Y
B26: 24638 (Fc fusion)
chain: APTSSSTKKTQLQLEHLLLDLQMILNGISNHKNPRLARMLTFKFYMPEKATELKHLQCLEEELKPLEEALRLAPSKNFHLRPRDLISDVNVIVLELKGSETTFMCEYADETATIVEFLNRWITFSQSIISTLT
B27: CD25 (receptor)
chain: T1 chain
B28: XENP26109 (Fc fusion)
chain 1: EPKSSDKTHTCPPCPAPPVAGPSVFLFPPKPKDTLMISRTPEVTCVVVDVKHEDPEVKFNWYVDGVEVHNAKTKPREEEYNSTYRVVSVLTVLHQDWLNGKEYKCKVSNKALPAPIEKTISKAKGQPREPQVYTLPPSREEMTKNQVSLTCDVSGFYPSDIAVEWESDGQPENNYKTTPPVLDSDGSFFLYSKLTVDKSRWEQGDVFSCSVMHEALHNHYTQKSLSLSPGK
chain 2: APASSSTKKTQLQLEHLLLNLQMILNGINNYKNPKLTRMLTFKFYMPKKATELKHLQCLEEELKPLEEVLKLAQSKNFHLRPRDLISNINVIVLELKGSETTFMCEYADETATIVEFLNRWITFSQSIISTLTEPKSSDKTHTCPPCPAPPVAGPSVFLFPPKPKDTLMISRTPEVTCVVVDVKHEDPEVKFNWYVDGVEVHNAKTKPREEQYNSTYRVVSVLTVLHQDWLNGKEYKCKVSNKALPAPIEKTISKAKGQPREPQVYTLPPSREQMTKNQVKLTCLVKGFYPSDIAVEWESNGQPENNYKTTPPVLDSDGSFFLYSKLTVDKSRWQQGNVFSCSVMHEALHNHYTQKSLSLSPGK
B29: XENP26105 (Fc fusion)
chain 1: B28 chain 1
chain 2: B28 chain 2 with T37R, K71N

What was measured:
human CD25 (IL-2Rα) [1] = target: T1, human CD25 (IL-2Rα); assay: Biacore; pH 7.4
human CD25 (IL-2Rα) [2] = target: T1, human CD25 (IL-2Rα); assay: Biacore; pH 6.0
human CD25 (IL-2Rα) [3] = target: T1, human CD25 (IL-2Rα); assay: Biacore; pH 7.4
human CD25 (IL-2Rα) [4] = target: T1, human CD25 (IL-2Rα); assay: Biacore; pH 6.0
human CD25 (IL-2Rα) [5] = target: T1, human CD25 (IL-2Rα); assay: Biacore; pH 7.4
human CD25 (IL-2Rα) [6] = target: T1, human CD25 (IL-2Rα); assay: Biacore; pH 6.0
CD25 = target: B27; assay: Octet
CD122:CD132 [7] = assay: Octet
XENP26104 = assay: Octet
XENP26093 = assay: Octet
XENP26089 = assay: Octet
XENP26088 = assay: Octet
XENP26096 = assay: Octet
XENP26086 = assay: Octet
XENP26092 = assay: Octet
XENP26108 = assay: Octet
24639 = assay: Octet
24732 = assay: Octet
24640 = assay: Octet
24636 = assay: Octet
24643 = assay: Octet
24729 = assay: Octet
24725 = assay: Octet
24641 = assay: Octet
24728 = assay: Octet
CD122:CD132 [8] = assay: Octet; remark: listed apart in the source
human CD25 (IL-2Rα) [9] = target: T1, human CD25 (IL-2Rα); assay: Octet

Binder: B1
Kd (human CD25 (IL-2Rα) [1]): 2 nM
Kd (human CD25 (IL-2Rα) [2]): 190 nM

Binder: B2
Kd (human CD25 (IL-2Rα) [1]): 9.4 nM
Kd (human CD25 (IL-2Rα) [2]): 16.8 nM

Binder: B3
Kd (human CD25 (IL-2Rα) [3]): 172 nM
Kd (human CD25 (IL-2Rα) [4]): 31.1 nM

Binder: B4
Kd (human CD25 (IL-2Rα) [5]): 280 nM

Binder: B5
Kd (human CD25 (IL-2Rα) [3]): 196 nM
Kd (human CD25 (IL-2Rα) [4]): 2470 nM

Binder: B6
Kd (human CD25 (IL-2Rα) [5]): 1110 nM

Binder: B7
Kd (human CD25 (IL-2Rα) [5]): 81 nM

Binder: B8
Kd (human CD25 (IL-2Rα) [6]): 30300 nM

Binder: B9
Kd (human CD25 (IL-2Rα) [6]): 83 nM

Binder: B10
Kd (human CD25 (IL-2Rα) [6]): 1710 nM

Binder: B11
Kd (human CD25 (IL-2Rα) [6]): 57200 nM

Binder: B12
Kd (human CD25 (IL-2Rα) [6]): 128 nM

Binder: B13
Kd (human CD25 (IL-2Rα) [5]): 149 nM

Binder: B14
Kd (human CD25 (IL-2Rα) [6]): 2630 nM

Binder: B15
Kd (human CD25 (IL-2Rα) [5]): 75.4 nM

Binder: B16
Kd (human CD25 (IL-2Rα) [5]): 326 nM

Binder: B17
Kd (human CD25 (IL-2Rα) [5]): 214 nM

Binder: B18
Kd (human CD25 (IL-2Rα) [3]): 1240 nM
Kd (human CD25 (IL-2Rα) [4]): 1710 nM

Binder: B19
Kd (human CD25 (IL-2Rα) [3]): 98.3 nM
Kd (human CD25 (IL-2Rα) [4]): 489 nM

Binder: B20
Kd (human CD25 (IL-2Rα) [6]): 2430 nM

Binder: B21
Kd (human CD25 (IL-2Rα) [6]): 319 nM

Binder: B22
Kd (human CD25 (IL-2Rα) [4]): 84.6 nM

Binder: B23
Kd (human CD25 (IL-2Rα) [3]): 458 nM
Kd (human CD25 (IL-2Rα) [4]): 533 nM

Binder: B24
Kd (human CD25 (IL-2Rα) [5]): 139 nM

Binder: B25
Kd (human CD25 (IL-2Rα) [5]): 5950 nM

Binder: B26
Kd (CD25): 1.33 nM
Kd (CD122:CD132 [7]): 146 nM

Binder: B27
Kd (XENP26104): 14.7 nM
Kd (XENP26093): 21.3 nM
Kd (XENP26089): 14.4 nM
Kd (XENP26088): 16.6 nM
Kd (XENP26096): 39.2 nM
Kd (XENP26086): 16.9 nM
Kd (XENP26092): 26.4 nM
Kd (XENP26108): 27.7 nM
Kd 24639: 8.04 nM
Kd 24732: 91.2 nM
Kd 24640: 1.14 nM
Kd 24636: 14.5 nM
Kd 24643: 26.6 nM
Kd 24729: 25.5 nM
Kd 24725: 19.6 nM
Kd 24641: 12.7 nM
Kd 24728: 41.8 nM

Binder: B28
Kd (CD122:CD132 [8]): 57.3 nM
Kd (human CD25 (IL-2Rα) [9]): 28.5 nM

Binder: B29
Kd (CD122:CD132 [8]): 36.4 nM
Kd (human CD25 (IL-2Rα) [9]): 14.1 nM
